The target of the experiment is T1, 人CD40 (BJAB细胞) (human, UniProt P25942 21-277).
T1 construct: whole, on cells; On the surface of BJAB cells in FACS and in the functional assays; also called 细胞膜表面的CD40; 人CD40分子
Put plainly: Western blot, hybridoma supernatant as primary antibody, HRP anti-mouse IgG secondary. On the technique in general: A western blot detects proteins with antibodies after separation by electrophoresis.

This note sets out measurements from patent CN109384845A (SHANGHAI INST BIOLOGICAL SCIENCES CAS, dated 2019).

T1 sequence (P25942 21-277): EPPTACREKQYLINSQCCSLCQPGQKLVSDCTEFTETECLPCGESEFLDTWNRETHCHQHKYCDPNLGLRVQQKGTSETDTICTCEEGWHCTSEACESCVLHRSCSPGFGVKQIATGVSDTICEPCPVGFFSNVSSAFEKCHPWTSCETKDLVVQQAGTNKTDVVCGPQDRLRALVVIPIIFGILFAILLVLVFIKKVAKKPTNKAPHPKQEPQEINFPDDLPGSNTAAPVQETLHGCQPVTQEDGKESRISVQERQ

B1: CD40单克隆抗体 No.3 (antibody, V domains shown)
VH: EVQLQQSGPELVKPGASVKIVCKASGYTFTDYNMDWVKQSHGKSLEWIGDINPKNGGIIYNQKFKGKATLTVDKSSSTAYMELRSLTSEDTAVYYCVRRFAYWGQGTTVTVSS
VL: DIELTQSPTTMAASPGEKITITCSASSSISSNYLHWYQQKPGFSPKLLIYRTSNLAYGVPARFSGSGSGTSYSLTIGTMEAEDVATYYCQQGSSIPYTFGGGTKLEIKR
notes: Mouse hybridoma antibody, tested as culture supernatant
In the case of B1, the binding result is recorded as “binds”.
